The target in this experiment is T1, 6xHis-CIPK6 (Arabidopsis thaliana, UniProt O65554 1-441).
T1 sequence: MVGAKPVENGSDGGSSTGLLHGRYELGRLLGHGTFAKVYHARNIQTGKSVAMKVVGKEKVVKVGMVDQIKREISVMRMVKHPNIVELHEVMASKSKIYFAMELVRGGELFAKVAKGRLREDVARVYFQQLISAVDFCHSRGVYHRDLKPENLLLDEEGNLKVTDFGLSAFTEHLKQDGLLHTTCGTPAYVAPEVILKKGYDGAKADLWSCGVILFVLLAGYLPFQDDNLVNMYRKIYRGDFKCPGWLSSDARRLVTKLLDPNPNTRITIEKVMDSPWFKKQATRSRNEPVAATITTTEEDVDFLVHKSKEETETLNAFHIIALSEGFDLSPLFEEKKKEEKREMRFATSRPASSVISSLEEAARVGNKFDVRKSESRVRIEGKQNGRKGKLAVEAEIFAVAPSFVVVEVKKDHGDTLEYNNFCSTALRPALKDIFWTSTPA
Briefly: pull-down.

B1: GST-RbohD-N (domain or fragment)
chain: MKMRRGNSSNDHELGILRGANSDTNSDTESIASDRGAFSGPLGRPKRASKKNARFADDLPKRSNSVAGGRGDDDEYVEITLDIRDDSVAVHSVQQAAGGGGHLEDPELALLTKKTLESSLNNTTSLSFFRSTSSRIKNASRELRRVFSRRPSPAVRRFDRTSSAAIHALKGLKFIATKTAAWPAVDQRFDKLSADSNGLLLSAKFWECLGMNKESKDFADQLFRALARRNNVSGDAITKEQLRIFWEQISDESFDAKLQVFFDMVDKDEDGRVTEEEVAEIISLSASANKLSNIQKQAKEYAALIMEELDPDNAGFIMIENLEMLLLQAPNQSVRMGDSRILSQMLSQKLRPAKESNPLVRWSEKIKYFILDNWQR
Regarding B1, the binding result is given as “binds”.

The values above are taken from doi:10.1101/2025.03.30.646247 (bioRxiv, 2025).
